This note sets out measurements from article PMC10906455, “Disruption of CFAP418 interaction with lipids causes widespread abnormal membrane-associated cellular processes in retinal degenerations” (JCI Insight, 2024).

The target in this experiment is mCherry-RAB28 WT (UniProt Q99KL7 1-221). The experiment in a line: co-IP; HEK293 cells cotransfected with FLAG-CFAP418 and mCherry-RAB28 WT, T26N, Q72L or mCherry; mCherry proteins 'pulled down', FLAG-CFAP418 seen only in the overexposed immunoblot. The note with it: partners not purified.

B1: FLAG-CFAP418 (natural protein)
chain: MAKDLDELLDEVETKFCRLDPLRLDLGERPKGDGGGGSHSGDRNGAQEKETLRSTETFKKEDDLDSLINEIFEEPDFDRKSFQKFKSKSSSNTCVRAPMQGVSKSCSPVYLSGSAIPCGIGTNTSQRACDRLRCVACDFRIVSYNDYMWDKSCDYLFFRNNMPEFHKLKTKLIEKKGARAYACQCSWRTVEELTDLQTDHQLRWVCGKH
notes: CFAP418; source: HEK293, cotransfected, in lysate
Turning to B1, the “fraction of CFAP418 pulled down” value is ~0.1%.
